The record followed here is patent US11952373B2, “Method of treating hypercytokinemia by administering the CCR5/CCL5 (RANTES) interaction inhibitor maraviroc” (priority 2020, dated 2024).

The target in one assay is CCR5 (Homo sapiens, UniProt P51681). To be noted: day 7, all ten critical COVID-19 patients, 700 mg leronlimab.
For assay [1], the system named is CD8 and CD4 T-cells (PD-1, LAG-3, cleaved caspase 3). The experiment in a line: Immunophenotyping / high parameter flow cytometry of T-cells and exhaustion markers in critical COVID-19 patients. It is filed as in vivo, human. The note with it: for exhaustion markers (PD-1, LAG-3, cleaved caspase 3) on CD8 and CD4 T-cells: after 700 mg leronlimab, all ten patients. On the technique in general: A flow cytometer gives signals particle by particle.

The test system of another assay is IL-6. Description: Plasma cytokine/chemokine panel in critical COVID-19 patients, IL-6. To be noted: Day 7 post-leronlimab vs Day 0, critical COVID-19 patients. In kind it is in vivo, human.
The next assay concerns CCL5/RANTES. The experiment in a line: Plasma cytokine/chemokine panel in critical COVID-19 patients, CCL5/RANTES. In kind it is in vivo, human.
Assay [2] deals with critically ill patients with COVID-19. Description: Clinical outcome of critically ill COVID-19 patients given leronlimab. To be noted: by Day 14, 10 critically ill COVID-19 patients. In kind it is in vivo, human.

Entries after “also recorded” stand apart in the source; their conditions may differ.

CCR5, sequence (P51681 whole entry): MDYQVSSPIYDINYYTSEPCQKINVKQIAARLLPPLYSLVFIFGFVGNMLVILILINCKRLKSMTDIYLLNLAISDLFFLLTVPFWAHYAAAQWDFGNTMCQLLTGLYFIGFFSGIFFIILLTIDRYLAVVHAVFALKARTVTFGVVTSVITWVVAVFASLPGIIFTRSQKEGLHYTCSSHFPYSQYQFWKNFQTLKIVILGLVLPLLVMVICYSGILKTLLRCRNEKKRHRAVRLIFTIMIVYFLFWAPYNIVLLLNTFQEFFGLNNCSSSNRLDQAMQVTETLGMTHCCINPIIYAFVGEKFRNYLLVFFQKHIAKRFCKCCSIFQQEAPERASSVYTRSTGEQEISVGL
Excerpt for CCL5/RANTES: (§1) To determine the extent and phenotype of “cytokine storm” cytokines and chemokines in critical COVID-19, a panel of 38 cytokines/chemokines was quantified in plasma from the ten critical COVID-19 patients at Day 0, Day 3 and Day 7 post-leronlimab therapy.
Excerpt for IL-6: as §1

B1: leronlimab: a humanized monoclonal antibody directed against CCR5 (antibody, chains of the INN, looked up, V domains shown)
VH: EVQLVESGGGLVKPGGSLRLSCAASGYTFSNYWIGWVRQAPGKGLEWIGDIYPGGNYIRNNEKFKDKTTLSADTSKNTAYLQMNSLKTEDTAVYYCGSSFGSNYVFAWFTYWGQGTLVTVSS
VL: DIVMTQSPLSLPVTPGEPASISCRSSQRLLSSYGHTYLHWYLQKPGQSPQLLIYEVSNRFSGVPDRFSGSGSGTDFTLKISRVEAEDVGVYYCSQSTHVPLTFGQGTKVEIK
As to B1, the “blockade of CCR5 as determined by receptor occupancy” value with CCR5 is given as around 100%. In addition, the figures for the “exhaustion markers (PD-1, LAG-3, cleaved caspase 3) on CD8 and CD4 T-cells” value in assay [1] and in assay [1] (listed as Leronlimab) were “improvement in exhaustion markers” and “improvements in exhaustion markers”, respectively. Also, the “immune restoration including T-cell numbers” value in assay [1] (all patients) was “immune restoration”. The “T-cell level and CD4/CD8 ratio” value in assay [1] (as little as 3 days post-therapy) was “begins to restore T-cell level and correct the gross alteration of CD4/CD8 ratio”. Moreover, in assay [1] (by Day 7 after 700 mg leronlimab), the “immune profile compared to normal control blood” value is “resembled the normal control blood”. For the same molecule, in assay [1] (following 7 days of leronlimab, compared to Day 0), the “expression of PD-1 and LAG3 on T-cells” value is recorded as “significantly decreases”. In addition, the “plasma IL-6 level change” value in the assay with IL-6 is “reduces IL-6; also recorded: significantly decreased; also recorded: dropped dramatically”. Further, the “plasma CCL5/RANTES level change” value is listed as “remained high; also recorded: did not drop as abruptly” in the assay with CCL5/RANTES (Day 7 post-leronlimab, critical COVID-19 patients) and “initiation of a drop” in the assay with CCL5/RANTES (Day 14, patients where data was available). In addition, in assay [2], the “patients extubated and released” value was 4. Moreover, the patients surviving entry in assay [2] is listed as “six out of 10”.
